For test [1], the target named is NbALFA^ST (NbALFA clone 1G5). The test can be described thus: peptide elution from NbALFA^ST resin; tag position M.
Test [2] deals with NbALFA^ST (NbALFA clone 1G5). The test can be described thus: peptide elution from NbALFA^ST resin; tag position N.

Where no end group is shown, it is not given here. Bounds are passed on as bounds.

NbALFA^ST (NbALFA clone 1G5), sequence (VHH, as listed by the source): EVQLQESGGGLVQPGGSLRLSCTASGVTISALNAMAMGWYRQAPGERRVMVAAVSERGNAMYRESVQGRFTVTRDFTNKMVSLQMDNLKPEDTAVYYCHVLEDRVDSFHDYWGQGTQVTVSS

B1: sd…g (SEQ ID NO: 97) (peptide)
peptide: SDSGLEEEARRRLSPG
The molecule B1 came in with a t1/2 in test [1] of less than 2 min.

B2: ds…g (SEQ ID NO: 99) (peptide)
peptide: DSGALEEELRRRLSPG
As to B2, in test [1], the t1/2 was less than 2 min.

B3: sdSG-…g (SEQ ID NO: 92) (peptide)
peptide: SDSGEEELRRRLSPG
In test [1], B3 returned a t1/2 of less than 2 min.

B4: ds…a (SEQ ID NO: 107) (peptide)
peptide: DSGPLEQELRRRLPTA
As for B4, in test [1], the t1/2 was less than 2 min.

B5: ds…g (SEQ ID NO: 103) (peptide)
peptide: DSGRLEQEIRRELSPG
In turn, B5 yielded a t1/2 in test [1] of less than 2 min.

B6: ds…a (SEQ ID NO: 106) (peptide)
peptide: DSPGLEQELRRRLPTA
As for B6, the t1/2 in test [1] is less than 2 min.

B7: Ms…s (SEQ ID NO: 113) (peptide)
peptide: MSSAVEEELRRRLSPS
modifications: not fully specified (residues 2, 16); printed as MsSAVEEELRRRLSPs
In turn, B7 registered a t1/2 in test [2] of less than 2 min.

B8: dp…a (SEQ ID NO: 105) (peptide)
peptide: DPSGLEQELRRRLPTA
B8 returned a t1/2 in test [1] of less than 2 min.

B9: sd…g (SEQ ID NO: 98) (peptide)
peptide: SDSGAEEELRRRLSPG
In test [1], B9 showed a t1/2 of less than 2 min.

B10: ds…--SPg (SEQ ID NO: 95) (peptide)
peptide: DSGRLEEELRRSPG
In test [1], B10 displayed a t1/2 of less than 2 min.

B11: …s (SEQ ID NO: 111) (peptide)
peptide: MSAVEEELRRRLSPS
modifications: not fully specified (residue 15); printed as MSAVEEELRRRLSPs
Molecule B11 yielded a t1/2 in test [2] of less than 2 min.

B12: dsGRLEEELR---SPg (SEQ ID NO: 96) (peptide)
peptide: DSGRLEEELRSPG
For the molecule B12, the t1/2 in test [1] was less than 2 min.

B13: ds…-SPg (SEQ ID NO: 94) (peptide)
peptide: DSGRLEEELRRRSPG
B13: the t1/2 in test [1] is less than 2 min.

B14: ds…g (SEQ ID NO: 101) (peptide)
peptide: DSGRLEQEIRRALSPG
For B14, the t1/2 in test [1] was less than 2 min.

B15: Mp…s (SEQ ID NO: 112) (peptide)
peptide: MPSAVEEELRRRLSPS
modifications: not fully specified (residues 2, 16); printed as MpSAVEEELRRRLSPs
In test [2], B15 showed a t1/2 of less than 2 min.

B16: sdSG--…g (SEQ ID NO: 93) (peptide)
peptide: SDSGEELRRRLSPG
The molecule B16 registered a t1/2 in test [1] of less than 2 min.

B17: pd…a (SEQ ID NO: 104) (peptide)
peptide: PDSGLEQELRRRLPTA
B17 registered a t1/2 in test [1] of less than 2 min.

B18: …s (SEQ ID NO: 109) (peptide)
peptide: MSAVEEELRRRLSPS
modifications: not fully specified (residue 15); printed as MSAVEEELRRRLSPs
Regarding B18, the t1/2 in test [2] was less than 2 min.

B19: ds…g (SEQ ID NO: 100) (peptide)
peptide: DSGALEQEIRRRLSPG
B19: the t1/2 in test [1] was less than 2 min.

B20: ds…g (SEQ ID NO: 102) (peptide)
peptide: DSGRLEQEIRRQLSPG
For B20, in test [1], the t1/2 is less than 2 min.

For the origin of these results see US20220048947A1.
